Results on 40 molecules are retold here after patent US20220363769A1 (SORRISO PHARMACEUTICALS, published 2022).

Where a chain is given by its changes, count along the chain named. In names and notes the source's numbering stands.

Assay [1] addresses T1, recombinant human IL-7Rα-His6-Fc (human, UniProt P16871 21-239).
T1 construct: also called hIL-7R; not shown: His6 tag; Fc (captured by anti-human IgG Fc)
T1 chain: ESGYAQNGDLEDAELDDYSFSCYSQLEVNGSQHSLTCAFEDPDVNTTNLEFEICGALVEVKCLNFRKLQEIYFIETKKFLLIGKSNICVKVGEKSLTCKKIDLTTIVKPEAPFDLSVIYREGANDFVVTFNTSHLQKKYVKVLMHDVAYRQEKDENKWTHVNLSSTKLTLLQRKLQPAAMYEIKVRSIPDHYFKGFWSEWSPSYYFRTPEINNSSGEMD
Put plainly: IL-7/IL-7R neutralisation ELISA; inhibition of IL-7 binding to IL-7R. As to the method:
A 7-point dilution series of the clones was prepared in 1% BSA (at 2× the assay concentration) starting at 300 nM and using a 3.2 dilution factor. […] Block buffer alone was also added to each plate as blank. […] TMB reaction was stopped after 30 minutes. […]
In general terms: ELISA stands for enzyme-linked immunosorbent assay.

For assay [2], the target named is T1, recombinant human IL-7Rα-His6-Fc. Put plainly: IL-7/IL-7Rα-His6-Fc ELISA; inhibition of IL-7 binding to IL-7R.
Assay [3] has the same target. Put plainly: IL-7/IL-7R neutralising ELISA; inhibition of IL-7 binding to IL-7R. As to the method:
A 7-point dilution series of the clones was prepared in 1% BSA (at 2× the assay concentration) starting at 300 nM and using a 3.2 dilution factor. […] Block buffer alone was also added to each plate as blank. […] TMB reaction was stopped after 30 minutes.
EC₅₀ values were generated in Graphpad prism using the ELISA signal blank corrected A450 data and ‘log(inhibitor) vs. response—Variable slope (four parameters)’ to fit curves and generate EC₅₀.

B1: ID-A2U (VHH)
VHH: EVQLVESGGGLVQAGGSLRLSCASSISTFSSDAMGWFRQAPGKEREFLAAIGWSGAVTHYSDSVQGRFTISRDNAKNTVYLQMNSLKSEDTGRYYCAEDYDTDVWQYWGQGTQVTVSS
notes: V7R-2E9 with E23A; produced from E. coli
For orientation: EC50 means the concentration that produces a half-maximal response. With B1, the EC50 in assay [1] stood at 475 pM.

B2: ID-A14U (VHH)
VHH: B1 VHH with A23E, Q65K
notes: V7R-2E9 with Q65K; produced from E. coli
With B2, in assay [1], the 50% effective concentration (EC50) is 150 pM.

B3: ID-A25U (VHH)
VHH: B1 VHH with A23E, E44G, F47W, Q65K, K87R, S88A
notes: V7R-2E9 with E44G, F47W, Q65K, K87R, S88A
Consider B3, for which, in assay [2], the EC50 amounted to 835 pM.

B4: ID-A15U (VHH)
VHH: B1 VHH with A23E, V79L
notes: V7R-2E9 with V79L; produced from E. coli
Regarding B4, in assay [1], the EC50 was found to be 146 pM.

B5: ID-A7U (VHH)
VHH: B1 VHH with A23E, E44G, R45L, F47W, L48V, A49S
notes: V7R-2E9 with 44 to 49 EREFLA to GLEWS (so in the source); produced from E. coli
With B5, the EC50 in assay [1] is 513 pM.

B6: ID-A13U (VHH)
VHH: B1 VHH with A23E, A49S
notes: V7R-2E9 with A49S; produced from E. coli
B6: the EC50 in assay [1] came to 615 pM.

B7: ID-A35U (VHH)
VHH: B1 VHH with A23E, Q65K, S88A
notes: V7R-2E9 with Q65K, S88A
Turning to B7, in assay [2], the EC50 is 849 pM.

B8: ID-A19U (VHH)
VHH: B1 VHH with A23E, G92A
notes: V7R-2E9 with G92A; produced from E. coli
In the case of B8, the EC50 in assay [1] stood at 188 pM.

B9: ID-A17U (VHH)
VHH: B1 VHH with A23E, S88A
notes: V7R-2E9 with S88A; produced from E. coli
As for B9, in assay [1], the concentration for a half-maximal effect (EC50) turned out to be 493 pM.

B10: ID-A39U (VHH)
VHH: B1 VHH with A23E, E44G, K87R, S88A
notes: V7R-2E9 with E44G, K87R, S88A
For B10, in assay [2], the EC50 stood at 411 pM.

B11: ID-A29U (VHH)
VHH: B1 VHH with A23E, E44G, R45L, F47W, Q65K, K87R
notes: V7R-2E9 with E44G, R45L, F47W, Q65K, K87R
B11: the EC50 in assay [2] was 476 pM.

B12: ID-A30U (VHH)
VHH: B1 VHH with A23E, E44G, Q65K, K87R, S88A
notes: V7R-2E9 with E44G, Q65K, K87R, S88A
Turning to B12, the EC50 in assay [2] is 362 pM.

B13: ID-A34U (VHH)
VHH: B1 VHH with A23E, Q65K, K87R
notes: V7R-2E9 with Q65K, K87R
Take B13: in assay [2], the EC50 came out at 376 pM.

B14: ID-A8U (VHH)
VHH: B1 VHH with A23E, E44G, R45L, F47W
notes: V7R-2E9 with 44 to 47 EREF to GLEW; produced from E. coli
As to B14, in assay [1], the EC50 amounted to 604 pM.

B15: ID-A16U (VHH)
VHH: B1 VHH with A23E, K87R
notes: V7R-2E9 with K87R; produced from E. coli
In the case of B15, in assay [1], the EC50 was 446 pM.

B16: ID-A4U (VHH)
VHH: B1 VHH with A23E, S24A
notes: V7R-2E9 with S24A; produced from E. coli
B16: the EC50 in assay [1] was 489 pM.

B17: ID-A31U (VHH)
VHH: B1 VHH with A23E, E44G, Q65K
notes: V7R-2E9 with E44G, Q65K
Consider B17, for which the EC50 in assay [2] was 336 pM.

B18: ID-A26U (VHH)
VHH: B1 VHH with A23E, E44G, R45L, Q65K, K87R, S88A
notes: V7R-2E9 with E44G, R45L, Q65K, K87R, S88A
Consider B18, for which the EC50 in assay [2] amounted to 841 pM.

B19: ID-A12U (VHH)
VHH: B1 VHH with A23E, L48V
notes: V7R-2E9 with L48V; produced from E. coli
On to B19, for which the EC50 in assay [1] was 179 pM.

B20: ID-A23U (VHH)
VHH: B1 VHH with A23E, E44G, R45L, F47W, Q65K, K87R, S88A
notes: V7R-2E9 with E44G, R45L, F47W, Q65K, K87R, S88A
Take B20: the EC50 in assay [2] worked out at 854 pM.

B21: ID-A11U (VHH)
VHH: B1 VHH with A23E, F47W
notes: V7R-2E9 with F47W; produced from E. coli
Turning to B21, in assay [1], the EC50 came to 175 pM.

B22: ID-A32U (VHH)
VHH: B1 VHH with A23E, E44G, K87R
notes: V7R-2E9 with E44G, K87R
As to B22, the concentration for a half-maximal effect (EC50) in assay [2] was 367 pM.

B23: ID-A28U (VHH)
VHH: B1 VHH with A23E, E44G, R45L, F47W, Q65K, S88A
notes: V7R-2E9 with E44G, R45L, F47W, Q65K, S88A
B23: in assay [2], the EC50 came to 460 pM.

B24: ID-A10U (VHH)
VHH: B1 VHH with A23E, R45L
notes: V7R-2E9 with R45L; produced from E. coli
Turning to B24, the EC50 in assay [1] is 529 pM.

B25: V7R-2B6 (VHH)
VHH: EVQLVESGGGLVQAGGSLRLSCESSARTFSDDAMGWFRQAAGKEREFLAAINWSGAVTHYGDSVKGRFTISRDNAKNTVYLQMDSLKPEDTAVYYCAEDYDTDVWQHWGQGTQVTVSS
notes: llama ICVD, primary clone, expressed in E. coli TG1; not shown: C-terminal FLAG and 6xHis tags from vector pMEK222
For the molecule B25, the EC50 in assay [3] came out at 264 pM.

B26: ID-A5U (VHH)
VHH: B1 VHH with A23E, I26G
notes: V7R-2E9 with I26G; produced from E. coli
With B26, the EC50 in assay [1] amounted to 490 pM.

B27: V7R-3B5 (VHH)
VHH: B1 VHH with A14V, A23E
notes: as for B25
Consider B27, for which the EC50 in assay [3] was determined as 222 pM.

B28: ID-A33U (VHH)
VHH: B1 VHH with A23E, E44G, S88A
notes: V7R-2E9 with E44G, S88A
On to B28, for which the EC50 in assay [2] worked out at 429 pM.

B29: ID-A18U (VHH)
VHH: B1 VHH with A23E, S88T
notes: V7R-2E9 with S88T; produced from E. coli
On to B29, for which the EC50 in assay [1] stood at 214 pM.

B30: ID-A6U (VHH)
VHH: B1 VHH with A23E, F37V
notes: V7R-2E9 with F37V; produced from E. coli
On to B30, for which, in assay [1], the EC50 stood at 194 pM.

B31: ID-A38U (VHH)
VHH: B1 VHH with A23E, E44G, Q65K, S88A
notes: V7R-2E9 with E44G, Q65K, S88A
As to B31, in assay [2], the EC50 is 789 pM.

B32: ID-A24U (VHH)
VHH: B1 VHH with A23E, R45L, F47W, Q65K, K87R, S88A
notes: V7R-2E9 with R45L, F47W, Q65K, K87R, S88A
As to B32, the EC50 in assay [2] stood at 819 pM.

B33: ID-A36U (VHH)
VHH: B1 VHH with A23E, K87R, S88A
notes: V7R-2E9 with K87R, S88A
Regarding B33, in assay [2], the EC50 was determined as 797 pM.

B34: ID-A21U (VHH)
VHH: B1 VHH with A23E, Q113L
notes: V7R-2E9 with Q113L; produced from E. coli
Turning to B34, the EC50 in assay [1] is 436 pM.

B35: ID-A27U (VHH)
VHH: B1 VHH with A23E, E44G, R45L, F47W, K87R, S88A
notes: V7R-2E9 with E44G, R45L, F47W, K87R, S88A
Take B35: the EC50 in assay [2] worked out at 395 pM.

B36: ID-A37U (VHH)
VHH: B1 VHH with A23E, E44G, Q65K, K87R
notes: V7R-2E9 with E44G, Q65K, K87R
On to B36, for which the EC50 in assay [2] turned out to be 845 pM.

B37: ID-A20U (VHH)
VHH: B1 VHH with A23E, R93V
notes: V7R-2E9 with R93V; produced from E. coli
B37: the EC50 in assay [1] stood at 139 pM.

B38: ID-A9U (VHH)
VHH: B1 VHH with A23E, E44G
notes: V7R-2E9 with E44G; produced from E. coli
B38: in assay [1], the EC50 was 168 pM.

B39: V7R-2E5 (VHH)
VHH: B1 VHH with A14P, A23E
notes: as for B25
Take B39: the EC50 in assay [3] worked out at 640 pM.

B40: V7R-2F6 (VHH)
VHH: B1 VHH with A23E, S27G, A56T
notes: as for B25
B40: the EC50 in assay [3] was determined as 361 pM.
